Measured values as given in paper PMC6739812 (Protein Science : A Publication of the Protein Society, 2019).

Target: the molecule itself
Assay: SEC-MALS

B1: InvCΔ79 (Salmonella T3SS ATPase InvC lacking the first 79 residues, with C-terminal Strep-tag) (domain or fragment, Salmonella typhimurium, UniProt P0A1B9 80-431, looked up)
chain: GRALSAWVGYSVLGAVLDPTGKIVERFTPEVAPISEERVIDVAPPSYASRVGVREPLITGVRAIDGLLTCGVGQRMGIFASAGCGKTMLMHMLIEQTEADVFVIGLIGERGREVTEFVDMLRASHKKEKCVLVFATSDFPSVDRCNAAQLATTVAEYFRDQGKRVVLFIDSMTRYARALRDVALASGERPARRGYPASVFDNLPRLLERPGATSEGSITAFYTVLLESEEEADPMADEIRSILDGHLYLSRKLAGQGHYPAIDVLKSVSRVFGQVTTPTHAEQASAVRKLMTRLEELQLFIDLGEYRPGENIDNDRAMQMRDSLKAWLCQPVAQYSSFDDTLSGMNAFADQN
  stoichiometry N: 2
